Measurements: patent US20030118612A1 (MAXYGEN, published 2003)
Substitutions are numbered along the chain they refer to. In names and notes the source's numbering stands.

T1: human G-CSF receptor (human, UniProt Q99062 25-836)
T1 sequence (looked up): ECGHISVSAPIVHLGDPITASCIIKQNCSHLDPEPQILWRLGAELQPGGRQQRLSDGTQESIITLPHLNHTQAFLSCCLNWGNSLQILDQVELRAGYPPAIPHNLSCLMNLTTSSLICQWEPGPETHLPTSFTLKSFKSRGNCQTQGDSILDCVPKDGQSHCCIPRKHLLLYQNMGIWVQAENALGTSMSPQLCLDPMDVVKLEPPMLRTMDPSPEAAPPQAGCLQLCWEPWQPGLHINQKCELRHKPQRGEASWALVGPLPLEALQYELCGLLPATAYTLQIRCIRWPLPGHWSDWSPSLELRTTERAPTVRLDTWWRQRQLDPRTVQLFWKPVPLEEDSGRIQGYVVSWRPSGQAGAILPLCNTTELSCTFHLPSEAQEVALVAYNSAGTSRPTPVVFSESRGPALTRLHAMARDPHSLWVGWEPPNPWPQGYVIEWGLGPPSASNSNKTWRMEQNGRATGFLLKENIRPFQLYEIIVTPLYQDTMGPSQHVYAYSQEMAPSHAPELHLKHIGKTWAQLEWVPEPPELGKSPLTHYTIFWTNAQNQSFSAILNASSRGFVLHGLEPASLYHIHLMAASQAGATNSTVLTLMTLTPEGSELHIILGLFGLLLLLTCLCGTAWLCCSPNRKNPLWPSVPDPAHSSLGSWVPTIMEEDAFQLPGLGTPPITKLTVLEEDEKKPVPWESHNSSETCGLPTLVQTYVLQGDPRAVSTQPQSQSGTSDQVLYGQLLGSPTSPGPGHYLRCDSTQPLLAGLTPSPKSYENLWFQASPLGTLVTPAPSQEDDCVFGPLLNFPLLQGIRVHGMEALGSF

B1: G-CSF variant 23Q conjugated to SPA-PEG 5000 (ligand)
chain: TPLGPASSLPQSFLLKCLEQVRQIQGDGAALQEKLCATYKLCHPEELVLLGHSLGIPWAPLSSCPSQALQLAGCLSQLHSGLFLYQGLLQALEGISPELGPTLDTLQLDVADFATTIWQQMEELGMAPALQPTQGAMPAFASAFQRRAGGVLVASHLQSFLEVSYRVLRHLAQP
modifications: SPA-PEG 5000 conjugated to the available PEGylation sites
B2: G-CSF variant K16/34/40R Q90K Q120K S142K, non-conjugated (ligand)
chain: B1 chain with K16R, Q23K, K34R, K40R, Q90K, Q120K, S142K
B3: G-CSF variant K34/40R conjugated to SPA-PEG 5000 (ligand)
chain: B1 chain with Q23K, K34R, K40R
modifications: SPA-PEG 5000 conjugated to the available PEGylation sites
B4: G-CSF variant K16/23R, non-conjugated (ligand)
chain: B1 chain with K16R, Q23R
B5: G-CSF variant K16/34/40R T105K Q120K T133K conjugated to SPA-PEG 5000 (ligand)
chain: B1 chain with K16R, Q23K, K34R, K40R, T105K, Q120K, T133K
modifications: SPA-PEG 5000 conjugated to the available PEGylation sites
B6: G-CSF variant K16/34/40R Q120K T133K S142K conjugated to SPA-PEG 5000 (ligand)
chain: B1 chain with K16R, Q23K, K34R, K40R, Q120K, T133K, S142K
modifications: SPA-PEG 5000 conjugated to the available PEGylation sites
B7: G-CSF variant K34/40R, non-conjugated (ligand)
chain: B1 chain with Q23K, K34R, K40R
B8: G-CSF variant K16/34/40R Q70K T105K Q120K conjugated to SPA-PEG 5000 (ligand)
chain: B1 chain with K16R, Q23K, K34R, K40R, Q70K, T105K, Q120K
modifications: SPA-PEG 5000 conjugated to the available PEGylation sites
B9: G-CSF variant 34Q conjugated to SPA-PEG 5000 (ligand)
chain: B1 chain with Q23K, K34Q
modifications: SPA-PEG 5000 conjugated to the available PEGylation sites
B10: G-CSF variant K16/34/40R Q70K Q90K T133K conjugated to SPA-PEG 5000 (ligand)
chain: B1 chain with K16R, Q23K, K34R, K40R, Q70K, Q90K, T133K
modifications: SPA-PEG 5000 conjugated to the available PEGylation sites
B11: G-CSF variant K16/23Q, non-conjugated (ligand)
chain: B1 chain with K16Q
B12: G-CSF variant K16/34/40R Q90K Q120K T133K conjugated to SPA-PEG 5000 (ligand)
chain: B1 chain with K16R, Q23K, K34R, K40R, Q90K, Q120K, T133K
modifications: SPA-PEG 5000 conjugated to the available PEGylation sites
B13: G-CSF variant 23R conjugated to SPA-PEG 5000 (ligand)
chain: B1 chain with Q23R
modifications: SPA-PEG 5000 conjugated to the available PEGylation sites
B14: G-CSF without N-terminal Histidine tag, non-conjugated (ligand)
chain: B1 chain with Q23K
B15: G-CSF variant 40R, non-conjugated (ligand)
chain: B1 chain with Q23K, K40R
B16: G-CSF variant K16/40R, non-conjugated (ligand)
chain: B1 chain with K16R, Q23K, K40R
B17: G-CSF variant K16/40R conjugated to SPA-PEG 5000 (ligand)
chain: B1 chain with K16R, Q23K, K40R
modifications: SPA-PEG 5000 conjugated to the available PEGylation sites
B18: G-CSF variant K16/34R, non-conjugated (ligand)
chain: B1 chain with K16R, Q23K, K34R
B19: G-CSF variant 34Q, non-conjugated (ligand)
chain: B1 chain with Q23K, K34Q
B20: G-CSF variant K16/34/40R Q70K Q120K T133K, non-conjugated (ligand)
chain: B1 chain with K16R, Q23K, K34R, K40R, Q70K, Q120K, T133K
B21: G-CSF variant K16/34/40R Q70K T105K Q120K, non-conjugated (ligand)
chain: B1 chain with K16R, Q23K, K34R, K40R, Q70K, T105K, Q120K
B22: G-CSF variant K16/34/40R Q90K T105K T133K conjugated to SPA-PEG 5000 (ligand)
chain: B1 chain with K16R, Q23K, K34R, K40R, Q90K, T105K, T133K
modifications: SPA-PEG 5000 conjugated to the available PEGylation sites
B23: G-CSF variant K16/23Q conjugated to SPA-PEG 5000 (ligand)
chain: B1 chain with K16Q
modifications: SPA-PEG 5000 conjugated to the available PEGylation sites
B24: G-CSF variant K16/34/40R Q70K Q120K S142K conjugated to SPA-PEG 5000 (ligand)
chain: B1 chain with K16R, Q23K, K34R, K40R, Q70K, Q120K, S142K
modifications: SPA-PEG 5000 conjugated to the available PEGylation sites
B25: G-CSF variant 34A conjugated to SPA-PEG 5000 (ligand)
chain: B1 chain with Q23K, K34A
modifications: SPA-PEG 5000 conjugated to the available PEGylation sites
B26: G-CSF variant K16/34/40R Q90K Q120K S142K conjugated to SPA-PEG 5000 (ligand)
chain: B1 chain with K16R, Q23K, K34R, K40R, Q90K, Q120K, S142K
modifications: SPA-PEG 5000 conjugated to the available PEGylation sites
B27: G-CSF variant 34R, non-conjugated (ligand)
chain: B1 chain with Q23K, K34R
B28: G-CSF variant K16/23/34R, non-conjugated (ligand)
chain: B1 chain with K16R, Q23R, K34R
B29: G-CSF variant K16/34/40R Q70K Q90K T133K, non-conjugated (ligand)
chain: B1 chain with K16R, Q23K, K34R, K40R, Q70K, Q90K, T133K
B30: G-CSF variant K16/34/40R Q90K T105K T133K, non-conjugated (ligand)
chain: B1 chain with K16R, Q23K, K34R, K40R, Q90K, T105K, T133K
B31: G-CSF variant 40R conjugated to SPA-PEG 5000 (ligand)
chain: B1 chain with Q23K, K40R
modifications: SPA-PEG 5000 conjugated to the available PEGylation sites
B32: G-CSF variant K16/34/40R T105K Q120K T133K, non-conjugated (ligand)
chain: B1 chain with K16R, Q23K, K34R, K40R, T105K, Q120K, T133K
B33: G-CSF variant K16/34/40R Q90K Q120K T133K, non-conjugated (ligand)
chain: B1 chain with K16R, Q23K, K34R, K40R, Q90K, Q120K, T133K
B34: G-CSF variant K16/34/40R Q90K T105K Q120K conjugated to SPA-PEG 5000 (ligand)
chain: B1 chain with K16R, Q23K, K34R, K40R, Q90K, T105K, Q120K
modifications: SPA-PEG 5000 conjugated to the available PEGylation sites
B35: G-CSF variant 34R conjugated to SPA-PEG 5000 (ligand)
chain: B1 chain with Q23K, K34R
modifications: SPA-PEG 5000 conjugated to the available PEGylation sites
B36: G-CSF variant K16/34/40R Q70K Q90K Q120K conjugated to SPA-PEG 5000 (ligand)
chain: B1 chain with K16R, Q23K, K34R, K40R, Q70K, Q90K, Q120K
modifications: SPA-PEG 5000 conjugated to the available PEGylation sites
B37: G-CSF variant K16/34/40R Q70K Q120K T133K conjugated to SPA-PEG 5000 (ligand)
chain: B1 chain with K16R, Q23K, K34R, K40R, Q70K, Q120K, T133K
modifications: SPA-PEG 5000 conjugated to the available PEGylation sites
B38: G-CSF variant K16/34/40R Q120K T133K S142K, non-conjugated (ligand)
chain: B1 chain with K16R, Q23K, K34R, K40R, Q120K, T133K, S142K
B39: G-CSF variant 34A, non-conjugated (ligand)
chain: B1 chain with Q23K, K34A
B40: G-CSF variant K16/34/40R Q70K Q120K S142K, non-conjugated (ligand)
chain: B1 chain with K16R, Q23K, K34R, K40R, Q70K, Q120K, S142K
B41: G-CSF variant K16/34R conjugated to SPA-PEG 5000 (ligand)
chain: B1 chain with K16R, Q23K, K34R
modifications: SPA-PEG 5000 conjugated to the available PEGylation sites
B42: G-CSF variant K16/34/40R Q90K T105K S159K, non-conjugated (ligand)
chain: B1 chain with K16R, Q23K, K34R, K40R, Q90K, T105K, S159K
B43: G-CSF variant K16/34/40R Q90K T105K Q120K, non-conjugated (ligand)
chain: B1 chain with K16R, Q23K, K34R, K40R, Q90K, T105K, Q120K
B44: G-CSF variant K16/23R conjugated to SPA-PEG 5000 (ligand)
chain: B1 chain with K16R, Q23R
modifications: SPA-PEG 5000 conjugated to the available PEGylation sites
B45: G-CSF variant K16/34/40R Q90K T105K S159K conjugated to SPA-PEG 5000 (ligand)
chain: B1 chain with K16R, Q23K, K34R, K40R, Q90K, T105K, S159K
modifications: SPA-PEG 5000 conjugated to the available PEGylation sites
B46: G-CSF variant 23R, non-conjugated (ligand)
chain: B1 chain with Q23R
B47: G-CSF variant K16/23/34R conjugated to SPA-PEG 5000 (ligand)
chain: B1 chain with K16R, Q23R, K34R
modifications: SPA-PEG 5000 conjugated to the available PEGylation sites
B48: G-CSF with N-terminal Histidine tag, non-conjugated (ligand)
chain: MKHQHQHQHQHQHQQTPLGPASSLPQSFLLKCLEQVRKIQGDGAALQEKLCATYKLCHPEELVLLGHSLGIPWAPLSSCPSQALQLAGCLSQLHSGLFLYQGLLQALEGISPELGPTLDTLQLDVADFATTIWQQMEELGMAPALQPTQGAMPAFASAFQRRAGGVLVASHLQSFLEVSYRVLRHLAQP

Target: T1, human G-CSF receptor
Test: cell-based or functional assay

| EC50 (% of hG-CSF) conjugated to SPA-PEG 5000 | EC50 (% of hG-CSF) non-conjugated | Binder |
| --- | --- | --- |
| 0.1 % of hG-CSF |  | B1 |
|  | 10 % of hG-CSF | B2 |
| 5 % of hG-CSF |  | B3 |
|  | 100 % of hG-CSF | B4 |
| 1 % of hG-CSF |  | B5 |
| 1 % of hG-CSF |  | B6 |
|  | 50 % of hG-CSF | B7 |
| 2 % of hG-CSF |  | B8 |
| 1 % of hG-CSF |  | B9 |
| 5 % of hG-CSF |  | B10 |
|  | 80 % of hG-CSF | B11 |
| 2 % of hG-CSF |  | B12 |
| 0.1 % of hG-CSF |  | B13 |
|  | 100 % of hG-CSF | B14 |
|  | 50 % of hG-CSF | B15 |
|  | 50 % of hG-CSF | B16 |
| 5 % of hG-CSF |  | B17 |
|  | 100 % of hG-CSF | B18 |
|  | 70 % of hG-CSF | B19 |
|  | 15 % of hG-CSF | B20 |
|  | 10 % of hG-CSF | B21 |
| 2 % of hG-CSF |  | B22 |
| 1 % of hG-CSF |  | B23 |
| 1 % of hG-CSF |  | B24 |

| EC50 (% of hG-CSF) conjugated to SPA-PEG 5000 | EC50 (% of hG-CSF) non-conjugated | Binder |
| --- | --- | --- |
| 1 % of hG-CSF |  | B25 |
| 1 % of hG-CSF |  | B26 |
|  | 100 % of hG-CSF | B27 |
|  | 50 % of hG-CSF | B28 |
|  | 15 % of hG-CSF | B29 |
|  | 10 % of hG-CSF | B30 |
| 1 % of hG-CSF |  | B31 |
|  | 10 % of hG-CSF | B32 |
|  | 15 % of hG-CSF | B33 |
| 2 % of hG-CSF |  | B34 |
| 1 % of hG-CSF |  | B35 |
| 12 % of hG-CSF |  | B36 |
| 2 % of hG-CSF |  | B37 |
|  | 10 % of hG-CSF | B38 |
|  | 80 % of hG-CSF | B39 |
|  | 10 % of hG-CSF | B40 |
| 10 % of hG-CSF |  | B41 |
|  | 55 % of hG-CSF | B42 |
|  | 10 % of hG-CSF | B43 |
| 1 % of hG-CSF |  | B44 |
| 5 % of hG-CSF |  | B45 |
|  | 100 % of hG-CSF | B46 |
| 10 % of hG-CSF |  | B47 |
|  | 10 % of hG-CSF | B48 |
